The text below walks through data of patent publication US20200339678A1 (RIGEL PHARMACEUTICALS, published 2020).

Residue numbers refer to the chain shown, from its start.

The chains are these.
T1: His-tagged recombinant Human TIGIT (human, UniProt Q495A1 22-141)
T1 construct: also called VSIG9; VSTM3; not shown: His tag
T1 sequence (looked up): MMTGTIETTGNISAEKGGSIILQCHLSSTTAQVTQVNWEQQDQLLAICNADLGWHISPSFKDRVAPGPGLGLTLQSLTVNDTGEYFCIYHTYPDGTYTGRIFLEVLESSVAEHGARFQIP

T2: His-tagged recombinant Mouse TIGIT (mouse, UniProt P86176 29-148, limits assumed)
T2 construct: not shown: His tag
T2 sequence (looked up): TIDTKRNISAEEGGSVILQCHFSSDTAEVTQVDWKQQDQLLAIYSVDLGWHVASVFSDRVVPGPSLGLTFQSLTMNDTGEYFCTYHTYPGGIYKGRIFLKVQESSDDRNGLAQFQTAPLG

B1: Ab78 (Fab, V domains shown)
VH: EVQLLESGGGLVQPGGSLRLSCAASGFTFSSYSMHWVRQAPGKGLEWVASISGSTSSSSYADSVKGRFTISRDNSKNTLYLQMNSLRAEDTAVYYCARVPYDVWMDYWGQGTLVTVSS
VL: not shown
notes: ARV set
B2: Ab93 (Fab, V domains shown)
VH: B1 VH with S33A, H35S, G53S, S56G, S57T, S58I, D102S
VL: not shown
notes: ARV set
B3: Ab152 (Fab, V domains shown)
VH: B1 VH with A49T, G53S, S54N, T55A, S56G, S57Y, S58I
VL: not shown
notes: ARV set
B4: Ab170 (Fab, V domains shown)
VH: B1 VH with S30N, S33A, S50Y, S54N, T55A, S56G, S58I, S59Y, D102S, M105L
VL: not shown
notes: ARV set
B5: Ab187 (Fab, V domains shown)
VH: EVQLLESGGGLVQPGGSLRLSCAASGFTFSSYSMSWVRQAPGKGLEWVASIKSDASTTGYADSVKGRFTISRDNSKNTLYLQMNSLRAEDTAVYYCAREPYSVWLDYWGQGTLVTVSS
VL: not shown
notes: ARE set
B6: Ab2 (Fab, V domains shown)
VH: EVQLLESGGGLVQPGGSLRLSCAASGFTFSSYGMNWVRQAPGKGLEWVAGINYSSGNKYYADSVKGRFTISRDNSKNTLYLQMNSLRAEDTAVYYCARGPYASTWLDYWGQGTLVTVSS
VL: not shown
notes: ARG set
B7: Ab4 (Fab, V domains shown)
VH: EVQLLESGGGLVQPGGSLRLSCAASGFTFDSYGMNWVRQAPGKGLEWVASIKYSSGYKYYADSVKGRFTISRDNSKNTLYLQMNSLRAEDTAVYYCARGPYDVWMDYWGQGTLVTVSS
VL: not shown
notes: ARG set
B8: Ab6 (Fab, V domains shown)
VH: B5 VH with S31D, S50R, K52S, D54S, A55S, T57Y, T58K, G59S
VL: not shown
notes: ARE set
B9: Ab53 (Fab, V domains shown)
VH: B7 VH with D30S, G33S, N35H, Y53S, G56S, Y57N, M105L
VL: not shown
notes: ARG set; also called clone Ab53
B10: Ab13 (Fab, V domains shown)
VH: B7 VH with G33S, N35H, A49S, K52N, Y53S, S54N, S55G, G99V, V103Y, M105I
VL: not shown
notes: ARV set
B11: Ab38 (Fab, V domains shown)
VH: B5 VH with S33T, S50G, K52W, A55S, S56G, T57N, T58K, E99V, L105I
VL: not shown
notes: ARV set
B12: Ab68 (Fab, V domains shown)
VH: B1 VH with S50A, S52K, S54N, S56G, S58T, S59Y, D102G
VL: not shown
notes: ARV set
B13: Ab12 (Fab, V domains shown)
VH: B5 VH with S33A, K52N, D54N, A55G, S56G, T57Y, T58K, G59S, S102G, V103T
VL: not shown
notes: ARE set
B14: Ab97 (Fab, V domains shown)
VH: B1 VH with S50A, G53S, S54N, S56G, S58I, S59G, M105I
VL: not shown
notes: ARV set
B15: Ab193 (Fab, V domains shown)
VH: B5 VH with S33A, A49S, S50A, A55T, T58I, G59Y, V103T
VL: not shown
notes: ARE set
B16: Ab40 (Fab, V domains shown)
VH: B7 VH with D30S, S50G, Y57N
VL: not shown
notes: ARG set; also called clone Ab40
B17: Ab60 (Fab, V domains shown)
VH: B1 VH with A49S, G53S, T55A, S56G, S57Y, S58T, M105L
VL: not shown
notes: ARV set
B18: Ab22 (Fab, V domains shown)
VH: B1 VH with S52K, G53S, T55G, S56G, S58K, S59Y, V103Y
VL: not shown
notes: ARV set
B19: Ab10 (Fab, V domains shown)
VH: B7 VH with D30S, G33S, S50Y, Y53S, S54N, Y57T, Y59G, V103Y, M105L
VL: not shown
notes: ARG set
B20: Ab15 (Fab, V domains shown)
VH: B1 VH with S52W, G53S, S54N, T55S, S56G, S57N, S58T, S59G, V103Y
VL: not shown
notes: ARV set
B21: Ab156 (Fab, V domains shown)
VH: B1 VH with S33A, H35S, A49S, S50Y, S54N, T55A, S56G, S57Y, S58I, D102G
VL: DIQMTQSPSSLSASVGDRVTITCRASQSISSYAAWYQQKPGKAPKLLIYGNTSRQSGVPSRFSGSGSGTDFTLTISSLQPEDFATYYCQQYSNSPLTFGGGTKVEIK
notes: ARV set
B22: Ab199 (Fab, V domains shown)
VH: B1 VH with G53S, T55A, S57T, S59G, D102G, M105I
VL: not shown
notes: ARV set
B23: Ab119 (Fab, V domains shown)
VH: B1 VH with H35S, S52K, G53S, S56G, S57T, S58I, V103Y
VL: not shown
notes: ARV set
B24: Ab137 (Fab, V domains shown)
VH: B1 VH with S52K, S54N, S56G, S58I, V103Y, M105I
VL: not shown
notes: ARV set
B25: Ab186 (Fab, V domains shown)
VH: B1 VH with G53S, S54N, T55A, S56G, S57Y, M105I
VL: not shown
notes: ARV set
B26: Ab128 (Fab, V domains shown)
VH: B1 VH with H35N, S52K, T55A, S57Y, S58T, V103Y, M105I
VL: not shown
notes: ARV set
B27: Ab146 (Fab, V domains shown)
VH: B1 VH with S33A, S54N, T55A, S56G, D102G, M105I
VL: not shown
notes: ARV set
B28: Ab168 (Fab, V domains shown)
VH: B5 VH with S33A, A49S, A55T, T57S, G59Y, V103Y
VL: not shown
notes: ARE set
B29: Ab162 (Fab, V domains shown)
VH: B5 VH with S33A, S50A, D54S, T58I, G59Y, L105M
VL: not shown
notes: ARE set
B30: Ab154 (Fab, V domains shown)
VH: B5 VH with S35H, D54N, A55T, S56G, E99V, S102G, V103Y, L105M
VL: not shown
notes: ARV set
B31: Ab194 (Fab, V domains shown)
VH: B5 VH with A49S, S50A, K52N, S53G, D54N, S56G, T57S, T58I, S102G, L105M
VL: not shown
notes: ARE set
B32: Ab140 (Fab, V domains shown)
VH: B5 VH with S33A, K52N, D54N, A55T, S56G, T57S, T58I, V103Y
VL: not shown
notes: ARE set
B33: Ab123 (Fab, V domains shown)
VH: B5 VH with K52S, D54S, S56G, T58S, G59S, S102G
VL: not shown
notes: ARE set
B34: Ab117 (Fab, V domains shown)
VH: B5 VH with S33A, S50A, D54S, T58I, G59Y, L105M
VL: not shown
notes: ARE set; also called clone Ab117
B35: Ab183 (Fab, V domains shown)
VH: EVQLLESGGGLVQPGGSLRLSCAASGFTFSSYAMSWVRQAPGKGLEWVSYINSNTGSIGYADSVKGRFTISRDNSKNTLYLQMNSLRAEDTAVYYCAREPYGVWMDYWGQGTLVTVSS
VL: not shown
notes: ARE set
B36: Ab173 (Fab, V domains shown)
VH: B35 VH with Y50S, N52S, S57T, G59S, E99V, V103Y
VL: not shown
notes: ARV set
B37: Ab138 (Fab, V domains shown)
VH: B5 VH with S33A, D54S, A55T, S56G, L105I
VL: not shown
notes: ARE set
B38: Ab188 (Fab, V domains shown)
VH: B1 VH with S52K, G53S, S54N, T55A, S56G, S57T, M105I
VL: not shown
notes: ARV set
B39: Ab150 (Fab, V domains shown)
VH: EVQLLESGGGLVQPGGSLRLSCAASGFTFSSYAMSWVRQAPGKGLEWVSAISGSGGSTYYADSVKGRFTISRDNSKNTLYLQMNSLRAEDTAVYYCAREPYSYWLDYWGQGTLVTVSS
VL: B21 VL with A33V, G50V, Q55A, Y91W, S92Y, N93E, S94F, P95N
notes: ARE set
B40: Ab158 (Fab, V domains shown)
VH: B5 VH with S50A, S53G, D54S, S56G, T58S, S102G, V103Y
VL: B21 VL with A33V, R54L, Y91G, S92D, N93E, S94N
notes: ARE set

One assay has as its target T1, His-tagged recombinant Human TIGIT. Nature of the assay: ELISA, coated His-tagged human TIGIT. The method, then:
(§1) Binding affinities for antigen binding to anti-TIGIT monoclonal antibodies were determined by ELISA. […] Antibodies to be tested were diluted to 1 μM in PBS buffer containing 1% BSA and diluted 3-fold in a 10-point curve. […] Detection of the secondary antibody was determined using streptavidin-HRP and TMB reagent. All assays were performed at room temperature. Curve-fitting software was used to determine the EC₅₀ for each antibody.
In general terms: In an ELISA, binding on a coated surface is turned into a signal by an enzyme label.
Take B1: the EC50 was determined as 0.119 µM. The same measure, in the same setting: under B2 stands 0.122 µM; under B3, 0.0271 µM; under B4, 0.138 µM. As for B5, the half-maximal effective concentration (EC50) worked out at 0.0062 µM. On to B6, for which the 50% effective concentration (EC50) was found to be 0.0157 µM. Regarding B7, the 50% effective concentration (EC50) was 0.0012 µM. With B8, the EC50 is 0.0254 µM. On to B9, for which the EC50 came out at 0.0043 µM.

As to B10, the EC50 was determined as 0.0431 µM.

Take B11: the EC50 turned out to be 0.0455 µM. Same read-out and setting: then B12, with 0.639 µM; and B13, with 0.0277 µM. As for B14, the concentration giving a half-maximal response (EC50) is 0.289 µM.

Turning to B15, the EC50 was 0.0046 µM. On the same count and under the same terms, under B16 stands 0.0003 µM; under B17, 0.0798 µM; under B18, 0.0091 µM.

For B19, the EC50 amounted to 0.101 µM.

Turning to B20, the EC50 amounted to 0.005 µM.

For another assay, the target named is T2, His-tagged recombinant Mouse TIGIT. In words: ELISA, coated His-tagged mouse TIGIT. The method, then:
as §1
Turning to B21, the EC50 was found to be 0.165 µM.

As to B22, the EC50 came to 0.081 µM. Same read-out and setting: under B23 stands 0.279 µM.

Turning to B24, the 50% effective concentration (EC50) turned out to be 0.0849 µM. As for B25, the half-maximal effective concentration (EC50) stood at 0.429 µM. As for B26, the concentration for a half-maximal effect (EC50) was found to be 0.265 µM. For the molecule B27, the EC50 stood at 0.0078 µM. Still for that read-out and setting: then B28, with 0.253 µM; and B29, with 0.0204 µM. Still for that read-out and setting: then B30, with 0.122 µM; and B31, with 0.0706 µM; and B32, with 0.173 µM. Same read-out and setting: then B33, with 0.578 µM; and B34, with 0.0107 µM; and B35, with 0.11 µM. B36: the EC50 was found to be 0.0649 µM. As for B37, the half-maximal effective concentration (EC50) was 0.0586 µM. In the case of B38, the EC50 was 0.0403 µM. Regarding B39, the 50% effective concentration (EC50) turned out to be 0.0007 µM.

For B40, the EC50 was determined as 0.157 µM. Turning to B10, the half-maximal effective concentration (EC50) was 0.0592 µM.

Turning to B18, the EC50 was 0.0051 µM.

Consider B19, for which the EC50 was determined as 0.0407 µM. Turning to B20, the EC50 stood at 0.0084 µM.

As usually defined, the EC50 is the concentration giving half of the maximal effect.
